Experimental data from article PMC7943762, “Bmp8a is an essential positive regulator of antiviral immunity in zebrafish”.

T1: rStat1a (Danio rerio (zebrafish), UniProt O93598 1-749)
T1 sequence: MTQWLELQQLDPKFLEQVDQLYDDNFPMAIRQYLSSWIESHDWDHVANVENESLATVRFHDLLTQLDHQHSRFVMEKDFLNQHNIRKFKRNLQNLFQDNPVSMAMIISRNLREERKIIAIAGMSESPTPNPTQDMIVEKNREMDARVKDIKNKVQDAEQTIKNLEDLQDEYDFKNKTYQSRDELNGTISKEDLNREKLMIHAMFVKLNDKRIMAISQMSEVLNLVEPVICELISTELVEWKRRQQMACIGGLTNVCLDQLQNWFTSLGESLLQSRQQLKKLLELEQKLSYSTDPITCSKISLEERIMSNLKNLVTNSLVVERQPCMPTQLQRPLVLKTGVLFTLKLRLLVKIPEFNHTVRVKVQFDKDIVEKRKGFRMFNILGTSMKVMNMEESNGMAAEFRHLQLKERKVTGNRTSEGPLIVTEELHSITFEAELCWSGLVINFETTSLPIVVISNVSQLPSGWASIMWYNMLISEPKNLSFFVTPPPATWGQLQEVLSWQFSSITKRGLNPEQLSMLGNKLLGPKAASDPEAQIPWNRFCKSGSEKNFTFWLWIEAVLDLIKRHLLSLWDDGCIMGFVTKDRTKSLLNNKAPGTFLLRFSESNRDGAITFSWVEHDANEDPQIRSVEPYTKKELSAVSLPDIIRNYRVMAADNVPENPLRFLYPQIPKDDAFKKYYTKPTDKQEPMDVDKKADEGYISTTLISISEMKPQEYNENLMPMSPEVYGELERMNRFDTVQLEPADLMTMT

T2: rStat1b (Danio rerio (zebrafish), UniProt B0S789 1-725)
T2 sequence: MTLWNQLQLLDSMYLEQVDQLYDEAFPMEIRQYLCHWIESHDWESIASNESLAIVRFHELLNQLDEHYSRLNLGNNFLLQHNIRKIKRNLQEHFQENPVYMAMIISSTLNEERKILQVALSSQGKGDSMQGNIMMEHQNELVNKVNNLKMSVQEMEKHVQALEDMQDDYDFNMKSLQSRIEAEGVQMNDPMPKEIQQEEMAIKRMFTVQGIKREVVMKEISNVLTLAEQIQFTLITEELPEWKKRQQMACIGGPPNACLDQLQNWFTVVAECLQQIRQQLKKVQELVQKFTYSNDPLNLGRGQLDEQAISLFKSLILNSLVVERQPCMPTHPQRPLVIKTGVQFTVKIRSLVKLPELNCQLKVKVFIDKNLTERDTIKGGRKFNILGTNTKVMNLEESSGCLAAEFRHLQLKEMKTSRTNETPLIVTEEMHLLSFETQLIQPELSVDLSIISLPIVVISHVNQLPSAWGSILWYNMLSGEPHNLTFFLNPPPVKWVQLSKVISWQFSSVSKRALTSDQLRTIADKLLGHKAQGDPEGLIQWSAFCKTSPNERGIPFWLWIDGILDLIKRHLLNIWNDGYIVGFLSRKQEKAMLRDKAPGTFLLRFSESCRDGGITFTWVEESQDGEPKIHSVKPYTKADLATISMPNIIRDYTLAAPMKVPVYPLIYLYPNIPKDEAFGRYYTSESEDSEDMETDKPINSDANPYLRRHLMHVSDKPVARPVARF

B1: P2 GAS probe (dsDNA)
DNA 1: TTCAATTTACTAGAACTTCTC
DNA 2: GAGAAGTTCTAGTAAATTGAA
B2: P1 mutant probe (dsDNA)
DNA 1: AGACCAGCCCGGGGCAACCAA
DNA 2: TTGGTTGCCCCGGGCTGGTCT
B3: P2 mutant probe (dsDNA)
DNA 1: TTCAATGCACTAGGCCTTCTC
DNA 2: GAGAAGGCCTAGTGCATTGAA
B4: P1 GAS probe (dsDNA)
DNA 1: AGACCATTCCGGGAAAACCAA
DNA 2: TTGGTTTTCCCGGAATGGTCT

Legend:
rStat1a [1] = target: T1, rStat1a; assay: EMSA; poly(dI-dC); anti-His supershift; unlabeled probe competes; Beyotime GS009 EMSA/Gel-Shift binding buffer with poly(dI-dC), 25 C, 25 min preincubation then 30 min with 0.5 uM biotin probe (competitor stated as 0.5 uM), native 6% PAGE; salt and pH not stated; details: protein: recombinant; tags: His (pET-28a; Ni-NTA, anti-His); chain copies: 2; label: biotin on both strands (5'); blunt
rStat1b [2] = target: T2, rStat1b; assay: as above; details: protein: recombinant; tags: His (pET-28a; Ni-NTA, anti-His); chain copies: 2; label: biotin on both strands (5'); blunt
rStat1a [3] = target: T1, rStat1a; assay: competition; unlabeled competitor vs biotin P1 probe; little change; Beyotime GS009 EMSA/Gel-Shift binding buffer with poly(dI-dC), 25 C, 25 min preincubation then 30 min with 0.5 uM biotin probe (competitor stated as 0.5 uM), native 6% PAGE; salt and pH not stated; details: protein: recombinant; tags: His (pET-28a; Ni-NTA, anti-His); chain copies: 2; blunt
rStat1b [4] = target: T2, rStat1b; assay: as above; details: protein: recombinant; tags: His (pET-28a; Ni-NTA, anti-His); chain copies: 2; blunt
rStat1a [5] = target: T1, rStat1a; assay: competition; unlabeled competitor vs biotin P2 probe; little change; Beyotime GS009 EMSA/Gel-Shift binding buffer with poly(dI-dC), 25 C, 25 min preincubation then 30 min with 0.5 uM biotin probe (competitor stated as 0.5 uM), native 6% PAGE; salt and pH not stated; details: protein: recombinant; tags: His (pET-28a; Ni-NTA, anti-His); chain copies: 2; blunt
rStat1b [6] = target: T2, rStat1b; assay: as above; details: protein: recombinant; tags: His (pET-28a; Ni-NTA, anti-His); chain copies: 2; blunt

| Binder | binding result (rStat1a [1]) | binding result (rStat1b [2]) | other results |
| --- | --- | --- | --- |
| B1 | binds | binds |  |
| B2 |  |  | binding result (rStat1a [3]): no binding; binding result (rStat1b [4]): no binding |
| B3 |  |  | binding result (rStat1a [5]): no binding; binding result (rStat1b [6]): no binding |
| B4 | binds | binds |  |
